The target in one assay is T1, p6–UEV interaction (Homo sapiens, UniProt Q99816).
T1 sequence (Q99816 2-145 limits assumed): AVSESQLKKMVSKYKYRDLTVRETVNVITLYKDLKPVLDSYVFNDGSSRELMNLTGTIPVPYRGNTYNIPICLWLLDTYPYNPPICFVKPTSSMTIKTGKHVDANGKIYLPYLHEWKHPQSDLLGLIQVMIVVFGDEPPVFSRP
In words: sandwich ELISA monitoring disruption of the p6–UEV PPI. In kind it is binding, HIV p6 / human UEV (TSG101). On the technique in general: ELISA stands for enzyme-linked immunosorbent assay.

Assay [1] has as its system GAG-mediated budding of virus-like particles from HEK293T cells. Briefly: virus-like particle budding assay. In kind it is cell-based, human. Conditions: 25 μM.
The target in assay [2] is T2, His6-UEV (ubiquitin E2 variant domain of the human TSG101 protein) (human, UniProt Q99816 2-145).
T2 sequence: T1 sequence (Q99816 2-145 limits assumed)
Briefly: fluorescence polarisation. On the technique in general: In fluorescence polarisation assays a small probe gives low polarisation when free and higher when bound to something large.

Assay [3] deals with T2, His6-UEV (ubiquitin E2 variant domain …). Briefly: ELISA.

Where a SMILES comes first, the peptide text is derived from it. Where no end group is shown, it is not given here.

At p6–UEV interaction, `CC[C@H](C)[C@@H]1NC(=O)[C@H](Cc2c[nH]c3ccccc23)NC(=O)CNC(=O)[C@H](CO)NC(=O)[C@H](C(C)C)NC(=O)[C@H](CC(N)=O)NC(=O)[C@H](Cc2c[nH]c3ccccc23)NC(=O)[C@H](Cc2ccc(O)cc2)NC1=O` [CP11] (cyclo(GWIYWNVS)) gave an IC50 of 30.2 ± 2.2 µM.
For CGRKKRRQRRRPPQ [Tat], the “effect on viral budding” value in assay [1] was “no effect”.
GGPEPTAPPEE (also: FITC label, position not given here) [FITC labelled PTAP peptide (GGPEPTAPPEE)] registered a Kd in assay [2] of 16.6 µM.

B1: GST-p6 (GST-tagged HIV p6 protein) (natural protein)
chain: LQSRPEPTAPPEESFRSGVETTTPPQKQEPIDKELYPLTSLRSLFGNDPSSQ
Take B1: the EC50 in assay [3] worked out at 0.948 µM.
Molecule GVAGGAACLHFFLSMPPSHVLDIC (FITC on the N-terminus; two non-overlapping lanthionine (thioether) rings) [N-terminal FITC-labeled peptide 3] showed a Kd in assay [2] of 5.5 µM.

The term IC50 denotes the concentration that inhibits the measured activity by half. Higher therefore signals weaker potency. Usually Kd stands for the constant that tells how readily two partners part at equilibrium. The EC50 is the concentration at which the effect is half-maximal. A lower EC50 goes with greater potency.

Source of the values: PMC5866752 (Nature chemical biology, 2018).
